# B1: nwTCR-2006 (TCR, V domains shown)
# V domain 1: AQSVTQLDSHVSVSEGTPVLLRCNYSSSYSPSLFWYVQHPNKGLQLLLKYTSAATLVKGINGFEAEFKKSETSFHLTKPSAHMSDAAEYFCVVSITGFQKLVFGTGTRLLVSP
# V domain 2: GAVVSQHPSRVICKSGTSVKIECRSLDFQATTMFWYRQFPKQSLMLMATSNEGSKATYEQGVEKDKFLINHASLTLSTLTVTSAHPEDSSFYICSATEDNEKLFFGSGTQLSVLE
# notes: TCR on T cells
# B2: nwTCR-2157 (TCR, V domains shown)
# V domain 1: QKEVEQNSGPLSVPEGAIASLNCTYSDRGSQSFFWYRQYSGKSPELIMFIYSNGDKEDGRFTAQLNKASQYVSLLIRDSQPSDSATYLCAVPGGTSYGKLTFGQGTILTVHP
# V domain 2: DTAVSQTPKYLVTQMGNDKSIKCEQNLGHDTMYWYKQDSKKFLKIMFSYNNKELIINETVPNRFSPKSPDKAHLNLHINSLELGDSAVYFCASSQGISGNTIYFGEGSWLTVVE
# notes: TCR on T cells
# B3: nwTCR-2159 (TCR, V domains shown)
# V domain 1: QQPVQSPQAVILREGEDAVINCSSSKALYSVHWYRQKHGEAPVFLMILLKGGEQKGHDKISASFNEKKQQSSLYLTASQLSYSGTYFCGTESGRGSTLGRLYFGRGTQLTVWP
# V domain 2: DSGVTQTPKHLITATGQRVTLRCSPRSGDLSVYWYQQSLDQGLQFLIQYYNGEERAKGNILERFSAQQFPDLHSELNLSSLELGDSALYFCASSPWTSGSYEQYFGPGTRLTVTE
# notes: TCR on T cells
# B4: nwTCR-2169 (TCR, V domains shown)
# V domain 1: SQQGEEDPQALSIQEGENATMNCSYKTSINNLQWYRQNSGRGLVHLILIRSNEREKHSGRLRVTLDTSKKSSSLLITASRAADTASYFCATLTLNDYKLSFGAGTTVTVRA
# V domain 2: EAQVTQNPRYLITVTGKKLTVTCSQNMNHEYMSWYRQDPGLGLRQIYYSMNVEVTDKGDVPEGYKVSRKEKRNFPLILESPSPNQTSLYFCATQWASGSTDTQYFGPGTRLTVLE
# notes: TCR on T cells
# B5: nwTCR-3173 (TCR, V domains shown)
# V domain 1: SQQGEEDPQALSIQEGENATMNCSYKTSINNLQWYRQNSGRGLVHLILIRSNEREKHSGRLRVTLDTSKKSSSLLITASRAADTASYFCATYANDYKLSFGAGTTVTVRA
# V domain 2: EAQVTQNPRYLITVTGKKLTVTCSQNMNHEYMSWYRQDPGLGLRQIYYSMNVEVTDKGDVPEGYKVSRKEKRNFPLILESPSPNQTSLYFCASSAGTGGFVGYTFGSGTRLTVVE
# notes: TCR on T cells
# B6: nwTCR-3271 (TCR, V domains shown)
# V domain 1: DQQVKQNSPSLSVQEGRISILNCDYTNSMFDYFLWYKKYPAEGPTFLISISSIKDKNEDGRFTVFLNKSAKHLSLHIVPSQPGDSAVYFCAAKPDKLIFGTGTRLQVFP
# V domain 2: SAVISQKPSRDICQRGTSLTIQCQVDSQVTMMFWYRQQPGQSLTLIATANQGSEATYESGFVIDKFPISRPNLTFSTLTVSNMSPEDSSIYLCSVWGAGLAIYNEQFFGPGTRLTVLE
# notes: TCR on T cells
# B7: nwTCR-3272 (TCR, V domains shown)
# V domain 1: QKEVEQNSGPLSVPEGAIASLNCTYSDRGSQSFFWYRQYSGKSPELIMSIYSNGDKEDGRFTAQLNKASQYVSLLIRDSQPSDSATYLCAVPSGNMLTFGGGTRLMVKP
# V domain 2: DVKVTQSSRYLVKRTGEKVFLECVQDMDHENMFWYRQDPGLGLRLIYFSYDVKMKEKGDIPEGYSVSREKKERFSLILESASTNQTSMYLCASSSATSGSGEQYFGPGTRLTVTE
# notes: TCR on T cells
# B8: nwTCR-3273 (TCR, V domains shown)
# V domain 1: SQELEQSPQSLIVQEGKNLTINCTSSKTLYGLYWYKQKYGEGLIFLMMLQKGGEEKSHEKITAKLDEKKQQSSLHITASQPSHAGIYLCGAVPINDYKLSFGAGTTVTVRA
# V domain 2: EAQVTQNPRYLITVTGKKLTVTCSQNMNHEYMSWYRQDPGLGLRQIYYSMNVEVTDKGDVPEGYKVSRKEKRNFPLILESPSPNQTSLYFCASSIDSGSSYNEQFFGPGTRLTVLE
# notes: TCR on T cells
# B9: nwTCR-3274 (TCR, V domains shown)
# V domain 1: QKEVEQNSGPLSVPEGAIASLNCTYSDRGSQSFFWYRQYSGKSPELIMSIYSNGDKEDGRFTAQLNKASQYVSLLIRDSQPSDSATYLCAVVSGGYNKLIFGAGTRLAVHP
# V domain 2: EPEVTQTPSHQVTQMGQEVILRCVPISNHLYFYWYRQILGQKVEFLVSFYNNEISEKSEIFDDQFSVERPDGSNFTLKIRSTKLEDSAMYFCASSEGWGGTEAFFGQGTRLTVVE
# notes: TCR on T cells
# B10: nwTCR-1954 (TCR, V domains shown)
# V domain 1: QKEVEQNSGPLSVPEGAIASLNCTYSDRGSQSFFWYRQYSGKSPELIMSIYSNGDKEDGRFTAQLNKASQYVSLLIRDSQPSDSATYLCAVLRSNDYKLSFGAGTTVTVRA
# V domain 2: EAQVTQNPRYLITVTGKKLTVTCSQNMNHEYMSWYRQDPGLGLRQIYYSMNVEVTDKGDVPEGYKVSRKEKRNFPLILESPSPNQTSLYFCASSPGTSGNEQFFGPGTRLTVLE
# notes: TCR on T cells
# Target: T1, labeled peptide-MHC (HLA-A*02:01) tetramer (…-HLA-A*02:01 tetramer) (human)
# T1 construct: Labeled tetramer used for flow cytometry staining; also called pMHC; pMHC tetramer
# Assay: pMHC tetramer staining of edited CD8+ T cells, flow cytometry
row,Binder,binding result
1,B1,binds
2,B2,binds
3,B3,binds
4,B4,binds

# Target: T1, labeled peptide-MHC (HLA-A*02:01) …
# Assay: tetramer staining of sorted T cell clones, flow cytometry
row,Binder,binding result
1,B5,binds
2,B6,binds
3,B7,binds
4,B8,binds
5,B9,binds
6,B10,binds

# From patent publication EP4682162A1 (Neowise Biotechnology Co., Ltd., dated 2026)
